In patent publication US20120316071A1 (published 2012):

Experiments:
[1] = biological target: T1, Recombinant Human DLL4 (delta-like protein 4) (human, UniProt Q9NR61 27-524); test: ELISA, DLL4 coated on plate, Fab at 100 nM (2-fold dilution series), absorbance at 450 nm
T1 construct: Bought recombinant human DLL4 coated on the ELISA plate; also called rHuman DLL4

[2] = biological target: T1, Recombinant Human DLL4 (delta-like …); test: ELISA, DLL4 coated on plate, Fab at 12.5 nM (2-fold dilution series), absorbance at 450 nm
[3] = biological target: T1, Recombinant Human DLL4 (delta-like …); test: ELISA, DLL4 coated on plate, Fab at 25 nM (2-fold dilution series), absorbance at 450 nm
[4] = biological target: T1, Recombinant Human DLL4 (delta-like …); test: ELISA, DLL4 coated on plate, Fab at 50 nM (2-fold dilution series), absorbance at 450 nm

ELISA signal [1] | ELISA signal [2] | ELISA signal [3] | ELISA signal [4] | Binder
0.99 | 0.41 | 0.62 | 0.79 | Fab VH5-51_IGHD5-18*01>3_IGHJ4*01 G100K/G104T G24L/S28R/G35V (KT LRV) & V3-4_IGLJ1*01 V91L/S96P S52T (Fab, V domains shown, Fab; Expressed in E. coli with CH1 (plasmid A, His6 and Flag tags) and lambda CL (plasmid E); also called G100K/G104T G24L/S28R/G35V & V91L/S96P S52T) VH: EVQLVQSGAEVKKPGESLKISCKTSGYRFTSYWIVWVRQMPGKGLEWMGIIYPGDSDTRYSPSFQGQVTISADKSISTAYLQWSSLKASDTAMYYCARRKYSYTYDYFDYWGQGTLVTVSS VL: QTVVTQEPSFSVSPGGTVTLTCGLSSGSVSTSYYPSWYQQTPGQAPRTLIYTTNTRSSGVPDRFSGSILGNKAALTITGAQADDESDYYCLLYMGPGISYVFGTGTKVTVL
0.96 | 0.47 | 0.67 | 0.81 | Fab VH5-51_IGHD5-18*01>3_IGHJ4*01 G100K/G104T G24L/S28R/G35V (KT LRV) & V3-4_IGLJ1*01 V91L/S96P S52Q (Fab, V domains shown, Fab; Expressed in E. coli with CH1 (plasmid A, His6 and Flag tags) and lambda CL (plasmid E); also called G100K/G104T G24L/S28R/G35V & V91L/S96P S52Q) VH: EVQLVQSGAEVKKPGESLKISCKTSGYRFTSYWIVWVRQMPGKGLEWMGIIYPGDSDTRYSPSFQGQVTISADKSISTAYLQWSSLKASDTAMYYCARRKYSYTYDYFDYWGQGTLVTVSS VL: QTVVTQEPSFSVSPGGTVTLTCGLSSGSVSTSYYPSWYQQTPGQAPRTLIYQTNTRSSGVPDRFSGSILGNKAALTITGAQADDESDYYCLLYMGPGISYVFGTGTKVTVL
1 | 0.45 | 0.58 | 0.81 | Fab VH5-51_IGHD5-18*01>3_IGHJ4*01 G100K/G104T G24T/S28R/G35V (KT TRV) & V3-4_IGLJ1*01 V91L/S96P (LP) (Fab, V domains shown, Fab; Expressed in E. coli with CH1 (plasmid A, His6 and Flag tags) and lambda CL (plasmid E); also called H:KT TRV & L:LP) VH: EVQLVQSGAEVKKPGESLKISCKTSGYRFTSYWIVWVRQMPGKGLEWMGIIYPGDSDTRYSPSFQGQVTISADKSISTAYLQWSSLKASDTAMYYCARRKYSYTYDYFDYWGQGTLVTVSS VL: QTVVTQEPSFSVSPGGTVTLTCGLSSGSVSTSYYPSWYQQTPGQAPRTLIYSTNTRSSGVPDRFSGSILGNKAALTITGAQADDESDYYCLLYMGPGISYVFGTGTKVTVL
1.02 | 0.43 | 0.58 | 0.78 | Fab VH5-51_IGHD5-18*01>3_IGHJ4*01 G100K/G104T G24T/S28R/G35V (KT TRV) & V3-4_IGLJ1*01 V91L/S96P S52L (Fab, V domains shown, Fab; Expressed in E. coli with CH1 (plasmid A, His6 and Flag tags) and lambda CL (plasmid E); also called H:KT TRV & L:LP S52L) VH: EVQLVQSGAEVKKPGESLKISCKTSGYRFTSYWIVWVRQMPGKGLEWMGIIYPGDSDTRYSPSFQGQVTISADKSISTAYLQWSSLKASDTAMYYCARRKYSYTYDYFDYWGQGTLVTVSS VL: QTVVTQEPSFSVSPGGTVTLTCGLSSGSVSTSYYPSWYQQTPGQAPRTLIYLTNTRSSGVPDRFSGSILGNKAALTITGAQADDESDYYCLLYMGPGISYVFGTGTKVTVL

The next lines start with the binder.

Binder | ELISA signal [1] | ELISA signal [2] | ELISA signal [3] | ELISA signal [4]
Fab VH5-51_IGHD5-18*01>3_IGHJ4*01 G100K/G104T G24L/S28R/G35V (KT LRV) & V3-4_IGLJ1*01 V91L/S96P S52M (Fab, V domains shown, Fab; Expressed in E. coli with CH1 (plasmid A, His6 and Flag tags) and lambda CL (plasmid E); also called G100K/G104T G24L/S28R/G35V & V91L/S96P S52M) VH: EVQLVQSGAEVKKPGESLKISCKTSGYRFTSYWIVWVRQMPGKGLEWMGIIYPGDSDTRYSPSFQGQVTISADKSISTAYLQWSSLKASDTAMYYCARRKYSYTYDYFDYWGQGTLVTVSS VL: QTVVTQEPSFSVSPGGTVTLTCGLSSGSVSTSYYPSWYQQTPGQAPRTLIYMTNTRSSGVPDRFSGSILGNKAALTITGAQADDESDYYCLLYMGPGISYVFGTGTKVTVL | 1.01 | 0.41 | 0.59 | 0.8
Fab VH5-51_IGHD5-18*01>3_IGHJ4*01 & V3-4_IGLJ1*01 (parental, wildtype) (Fab, V domains shown, Fab; Expressed in E. coli with CH1 (plasmid A, His6 and Flag tags) and lambda CL (plasmid E); also called Wildtype & Wildtype; parent Hit Fab) VH: EVQLVQSGAEVKKPGESLKISCKGSGYSFTSYWIGWVRQMPGKGLEWMGIIYPGDSDTRYSPSFQGQVTISADKSISTAYLQWSSLKASDTAMYYCARRGYSYGYDYFDYWGQGTLVTVSS VL: QTVVTQEPSFSVSPGGTVTLTCGLSSGSVSTSYYPSWYQQTPGQAPRTLIYSTNTRSSGVPDRFSGSILGNKAALTITGAQADDESDYYCVLYMGSGISYVFGTGTKVTVL | 0.17 | 0.17 | 0.18 | 0.16
Fab VH5-51_IGHD5-18*01>3_IGHJ4*01 G100K/G104T G24A/S28R/G35V (KT ARV) & V3-4_IGLJ1*01 V91L/S96P S52H (Fab, V domains shown, Fab; Expressed in E. coli with CH1 (plasmid A, His6 and Flag tags) and lambda CL (plasmid E); Fab H:KT TRV & L:LP S52H; also called G100K/G104T G24A/S28R/G35V & V91L/S96P S52H) VH: EVQLVQSGAEVKKPGESLKISCKTSGYRFTSYWIVWVRQMPGKGLEWMGIIYPGDSDTRYSPSFQGQVTISADKSISTAYLQWSSLKASDTAMYYCARRKYSYTYDYFDYWGQGTLVTVSS VL: QTVVTQEPSFSVSPGGTVTLTCGLSSGSVSTSYYPSWYQQTPGQAPRTLIYHTNTRSSGVPDRFSGSILGNKAALTITGAQADDESDYYCLLYMGPGISYVFGTGTKVTVL | 1.09 | 0.5 | 0.73 | 0.91
Fab VH5-51_IGHD5-18*01>3_IGHJ4*01 G100K/G104T G24A/S28R/G35V (KT ARV) & V3-4_IGLJ1*01 V91L/S96P S52P (Fab, V domains shown, Fab; Expressed in E. coli with CH1 (plasmid A, His6 and Flag tags) and lambda CL (plasmid E); also called G100K/G104T G24A/S28R/G35V & V91L/S96P S52P) VH: EVQLVQSGAEVKKPGESLKISCKTSGYRFTSYWIVWVRQMPGKGLEWMGIIYPGDSDTRYSPSFQGQVTISADKSISTAYLQWSSLKASDTAMYYCARRKYSYTYDYFDYWGQGTLVTVSS VL: QTVVTQEPSFSVSPGGTVTLTCGLSSGSVSTSYYPSWYQQTPGQAPRTLIYPTNTRSSGVPDRFSGSILGNKAALTITGAQADDESDYYCLLYMGPGISYVFGTGTKVTVL | 1 | 0.43 | 0.59 | 0.79
Fab VH5-51_IGHD5-18*01>3_IGHJ4*01 G100K/G104T G24A/S28R/G35V (KT ARV) & V3-4_IGLJ1*01 V91L/S96P S52I (Fab, V domains shown, Fab; Expressed in E. coli with CH1 (plasmid A, His6 and Flag tags) and lambda CL (plasmid E); also called G100K/G104T G24A/S28R/G35V & V91L/S96P S52I) VH: EVQLVQSGAEVKKPGESLKISCKTSGYRFTSYWIVWVRQMPGKGLEWMGIIYPGDSDTRYSPSFQGQVTISADKSISTAYLQWSSLKASDTAMYYCARRKYSYTYDYFDYWGQGTLVTVSS VL: QTVVTQEPSFSVSPGGTVTLTCGLSSGSVSTSYYPSWYQQTPGQAPRTLIYITNTRSSGVPDRFSGSILGNKAALTITGAQADDESDYYCLLYMGPGISYVFGTGTKVTVL | 1.04 | 0.4 | 0.6 | 0.82
